These are literature values, as cited in PMC9971567.

In this series the target is Intimin C terminus (Escherichia coli) (UniProt P19809).
Chain of UniProt P19809 (P19809 660-939): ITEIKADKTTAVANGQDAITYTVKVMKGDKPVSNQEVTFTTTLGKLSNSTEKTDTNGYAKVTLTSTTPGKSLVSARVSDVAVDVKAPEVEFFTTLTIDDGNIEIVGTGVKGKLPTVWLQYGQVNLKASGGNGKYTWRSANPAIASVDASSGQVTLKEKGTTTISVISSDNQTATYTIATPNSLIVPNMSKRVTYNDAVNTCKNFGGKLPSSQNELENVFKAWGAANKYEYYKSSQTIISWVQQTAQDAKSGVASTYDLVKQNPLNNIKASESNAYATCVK

For Tir central loop (from UniProt B7UM99), the Kd – broadly, a measure of binding affinity in units of concentration – was 10 nM.
